Data: article PMC10853454, “ADAM19 cleaves the PTH receptor and associates with brachydactyly type E” (Life Science Alliance, 2024)

Experiments:
ADAM19 cleavage of PTHR1 = assay: PTHR1 cleavage by ADAM19, Western blot after PNGase F de-glycosylation; type: cell-based, human; conditions: HEK-293T (text: HEK 293) cells, unmodified PTHR1 + ADAM19, 10 μM batimastat, inhibitors added 24 h, lysis 36 h after transfection, Western blot anti PTHR1 573–593
Method: HEK-293T cells were seeded onto 12-well plates and transfected with plasmids encoding human P[…], ADAM-19 using TransIT-293 (Mirus) according to the manufacturer's instructions. Protease inhibitors were added to the medium 24 h after transfection as indicated. 36 h after transfection, cells were washed with PBS and lysed in ice-cold radioimmune precipitation assay buffer (50 mM Tris-HCl, pH 7.5, 150 mM NaCl, 1% [wt/vol] Nonidet P-40, 0.1% [wt/vol] SDS, 0.5% [wt/vol] sodium deoxycholate, 5 mM EDTA) supplemented with a mix of protease inhibitors (5 μM leupeptin, 5 μM pepstatin-A, 1 mM 4-(2-aminoethyl) benzenesulfonyl fluoride). The lysates were cleared by centrifugation at 20,000g for 30 min at 4°C. For deglycosylation, lysates were incubated with 40 mM dethiothreitol and 0.5% SDS for 90 min at 25°C. Thereafter, 1 mg/ml PNGase F was added, and samples were incubated for 16 h at 4°C. Proteins were separated by 8% or 10% SDS-PAGE and transferred onto PVDF membranes ([…], #T830.1; Carl Roth). The membranes were blocked in 5% skimmed milk powder (Sigma-Aldrich) or in casein solution (Sigma-Aldrich) for 1 h at RT. […] Proteins were detected either after short incubation in Immobilon Western ECL substrate (#WBKLS0500; Millipore) on an Odyssey FC device (Li-cor Biosciences) or on an Odyssey CLx scanner (Li-cor Biosciences). […]

ADAM19 / EYFP-PTHR1 = assay: ADAM19 shedding assay, EYFP-PTHR1 supernatant/cell fluorescence ratio; type: cell-based, human; conditions: HEK-293T cells, EYFP-PTHR1 + WT ADAM19; 100 μM ilomastat in DMEM from 1 h after transfection, 48 h (method: 47 h); EYFP fluorescence 500/539 nm; n = 5, t test
Method: For fluorescence-based shedding experiments, HEK-293T cells were seeded in six-well cell culture plates at a density of 500,000 cells per well 24 h prior to transfection. Next day, cells in each well were transfected with 0.4 μg EYFP-PTHR1 plasmid and 0.8 μg ADAM19 or empty pcDNA3 vector plasmids. For the experiments in which the different ADAM:EYFP-PTHR1 ratios were examined, cells were transfected with a constant 0.3 μg EYFP-PTHR1 construct alongside with varying amounts of ADAM19 and pcDNA constructs to maintain the total DNA amount of 1.2 μg. 1 h after transfection, cells were supplemented with DMEM or with 100 μM ilomastat dissolved in DMEM. […] 96-well plate fluorescence measurements were performed using a Biotek Neo2 multi-well plate reader. EYFP intensity was measured using high lamp power settings at an excitation wavelength of 500/18 nm. Fluorescence was detected using a monochromator set to 539/20 nm for emission and a photomultiplier tube set to 120 V gain. To calculate and quantify the ADAM19-mediated shedding of PTHR1 N-terminus, background fluorescence value obtained from pure DMEM was subtracted from fluorescence values obtained from cell culture medium (Fsupernatant) and cell suspensions (Fcell), and then the ratio of background-corrected fluorescence values was calculated: Ratio = Fsupernatant/Fcell. […]

[1] = tested on: PTHR1 (cAMP accumulation); assay: FRET-based cAMP accumulation assay (Epac-S-H187) in U2OS cells; type: cell-based, human; conditions: 500 pM ligand
Method: For cAMP accumulation assays, U2OS cells were seeded on Poly-D- Lysine-coated 24 mm glass cover slips in 6-well plates at a density of 1.0 × 10^6 cells/well and transfected with 1–2.4 μg cDNA per cover slip using Effectene (QIAGEN) or NEON electroporation (Thermo Fisher Scientific) according to the manufacturer’s protocol. cDNA was transfected with the EPAC-S-H187 FRET-biosensor ([Klarenbeek et al, 2015]), PTHR1-wt and ADAM19 at a ratio of 1:1:2. Fluorescence microscopy experiments were performed 48 h after transfection. For single-cell FRET imaging experiments, transfected cells on coverslips were transferred to imaging chambers (Attoflur; Thermo Fisher Scientific) and washed once and maintained in FRET imaging buffer (144 mM NaCl, 5.4 mM KCl, 2 mM CaCl2 [Carl Roth GmbH & Co. KG], 1 mM MgCl 2 [AppliChem], 10 mM HEPES [Sigma-Aldrich Chemie GmbH]; pH = 7.3). For the experiment, the cells remained at RT throughout the experiment. […]
After selecting suitable cells at the microscope, regions of interest (single cells and a cell-free background region) were chosen and recording parameters were set using the Visiview 4.0 imaging software (Visitron Systems). Every 5 s, images of the donor and acceptor emission channels were recorded following donor excitation at 436 nm for 100 ms. […] After every experiment, direct YFP excitation at 505 nm (emission: 560 nm) was recorded as a unit of measurement for the expression level of the sensor.
For data analysis, raw emission intensities from CFP and YFP channels were exported and corrected for background (by subtracting the emission intensities of a cell free region) and bleed-through of the donor fluorescence into the acceptor channel ([Borner et al, 2011]). FRET ratios (CFP/FRET in %) were calculated and normalized to baseline average of 10 data points before ligand addition, set to 0% and Forskolin/3-iso-butyl-1 methylxanthine (max. cAMP response, set to 100%). […]

PTHR1 (Gs activation) = assay: BRET-based Gs activation by PTHR1; type: cell-based, human; conditions: HEK-293T cells with ADAM19; Gs BRET sensor, 37°C; three independent experiments in duplicates
Method: (§1) U2OS, Saos2 and HEK-293T cells were transfected with Gs or Gq protein BRET biosensors ([Che et al, 2010]), PTHR1 and ADAM19 at a ratio of 1:1:2. For β-arrestin2 BRET recruitment assay, PTHR1-Nanoluc was used with β-arrestin2-cpVenus and ADAM19 at a ratio of 1:1:2 ([Nemec et al, 2022]). Combinations were transfected with Effectene (QIAGEN) or NEON electroporation (Thermo Fisher Scientific) according to the manufacturer’s protocol with a total of 1–2.4 μg of cDNA. After 24 h cells were transferred into a PDL-precoated a white-wall, white-bottomed 96-well microtiter plate, at a density of 60,000 cells/well. 24 h after the reseeding, the medium was removed, and cells were washed once with PBS with 0.1% BSA and incubated with 90 μl of a 1:1,000 (vol:vol) stock solution of furimazine in PBS buffer. 5 min later, basal reads were recorded for 4 min and subsequently, 10 μl of 10-fold ligand solution or FRET buffer was applied to each well and the stimulated reads were further recorded. Measurements were performed at 37°C using a Synergy Neo2 Plate Reader with the NanoBRET filter set, integration time per data point was set to 0.3 s and gain to 110/140. Cells were excited at 510/20 nm and fluorescence emission was recorded at 560/20 nm for quantification of expression level ([Nemec et al, 2022]).

PTH1R = conditions: ref Hattersley et al, 2016; cited from earlier work
[2] = tested on: PTHR1 (β-arrestin2 recruitment); assay: BRET β-arrestin2 recruitment to PTHR1 in SaOS cells; type: cell-based, human; conditions: SaOS (Saos2) cells; PTHR1-Nanoluc + β-arrestin2-cpVenus BRET, 37°C
Method: as §1

[3] = tested on: PTHR1 (β-arrestin2 recruitment); assay: BRET β-arrestin2 recruitment to PTHR1 in U2OS cells; type: cell-based, human
Method: as §1

PTHR1 (Gq activation) = assay: BRET-based Gq activation by PTHR1; type: cell-based, human
Method: as §1

With `CNC(=O)[C@H](Cc1ccccc1)NC(=O)[C@H](CC(C)C)[C@H](CSc1cccs1)C(=O)NO` [batimastat] the “PTHR1 species detected with ADAM19 co-expression” value (ADAM19 cleavage of PTHR1) was “only the 60 kD species of PTHR1 were detected”.

In the case of `CNC(=O)[C@H](Cc1c[nH]c2ccccc12)NC(=O)[C@@H](CC(=O)NO)CC(C)C` [Ilomastat (GM6001)], the “inhibition of PTHR1 cleavage by ADAM19” value (ADAM19 / EYFP-PTHR1) is reported as “PTHR1 cleavage by ADAM19 was inhibited”.

For “PTH1-34: PTHR1 ligand, BACHEM #4033364 (SVSEIQLMHNLGKHLNSMERVEWLRKKLQDVHNF; Parathyroid hormone; UniProt P01270 32-65, looked up, fragment)”, the “increase of FRET ratio (CFP/FRET), average” value ([1]; U2OS cells with and without ADAM19, 0% = baseline, 100% = 10 μM Forskolin + 100 μM 3-iso-butyl-1 methylxanthine, "in both cases") was 70–80%, the cAMP response ([1]; U2OS cells, PTH1R + Epac-S-H187, alone and with ADAM19, single-cell FRET, RT, pH 7.3) was “an increase in cAMP was detected” and the “difference in cAMP response with vs without ADAM19” value ([1]; U2OS cells, PTH1-34 n = 96 cells on 5 days (Welch t test), PTHrP n = 76 cells on 2 days (Mann-Whitney)) was “no significant differences”.

B1: PTH: parathyroid hormone; PTHR1 agonist, form used in BRET assays not specified (peptide, UniProt P01270 32-115, looked up)
Parathyroid hormone: SVSEIQLMHNLGKHLNSMERVEWLRKKLQDVHNFVALGAPLAPRDAGSQRPRKKEDNVLVESHEKSLGEADKADVNVLTKAKSQ
modifications: Parathyroid hormone
notes: parathyroid hormone; PTHR1 agonist, form used in BRET assays not specified
In the case of B1, the “Gs-activation for WT PTHR1 compared to cleavage-protected PTHR1-56-63A mutant” value (PTHR1 (Gs activation)) is given as “increased Gs-activation”, the “agonist type at PTH1R” value (PTH1R) is given as “full agonists” and the “β-arrestin2 recruitment to PTHR1, presence vs absence of ADAM19” value [2] is given as “significantly increased β-arrestin translocation to the PTHR1 when ADAM19 was present”. For the same molecule, the “β-arrestin2 recruitment to PTHR1, presence vs absence of ADAM19” value ([3]; PTHR1-Nanoluc + β-arrestin2-cpVenus BRET, 37°C, four experiments in quadruple) was “significantly increased β-arrestin translocation to the PTHR1 when ADAM19 was present”, the “Top of the curve (maximum efficacy), β-arrestin2 recruitment, with vs without ADAM19” value ([3]; three-parameter non-linear fit, extra sum of squares F test (<0.0001)) was “significantly different” and the “Top of the curve (maximum efficacy), Gq, WT vs 56–63A mutant PTHR1” value (PTHR1 (Gq activation); HEK293T with ADAM19, three-parameter non-linear fit, extra sum of squares F test (<0.0001), Fig 6B-E legend, panels not distinguished) was “significantly different”. For the same molecule, the “Gq-activation for WT PTHR1 compared to cleavage-protected PTHR1-56-63A mutant” value (PTHR1 (Gq activation); HEK-293T cells with ADAM19, Gq BRET sensor, 37°C, three independent experiments in duplicates) was “decreased Gq-activation”.
